Biological target: histone H2A–H2B (from chicken blood histone core octamers) (chicken) (UniProt P02263)
Experiment: ITC; 25 °C, 20 mM HEPES pH 7.5, 200 mM NaCl, 1 mM DTT; histones in the cell at 20–30 μM, SSRP1 variants in the syringe at 10 times that concentration

full-length DdSSRP1, sequence (Q54G78 whole entry): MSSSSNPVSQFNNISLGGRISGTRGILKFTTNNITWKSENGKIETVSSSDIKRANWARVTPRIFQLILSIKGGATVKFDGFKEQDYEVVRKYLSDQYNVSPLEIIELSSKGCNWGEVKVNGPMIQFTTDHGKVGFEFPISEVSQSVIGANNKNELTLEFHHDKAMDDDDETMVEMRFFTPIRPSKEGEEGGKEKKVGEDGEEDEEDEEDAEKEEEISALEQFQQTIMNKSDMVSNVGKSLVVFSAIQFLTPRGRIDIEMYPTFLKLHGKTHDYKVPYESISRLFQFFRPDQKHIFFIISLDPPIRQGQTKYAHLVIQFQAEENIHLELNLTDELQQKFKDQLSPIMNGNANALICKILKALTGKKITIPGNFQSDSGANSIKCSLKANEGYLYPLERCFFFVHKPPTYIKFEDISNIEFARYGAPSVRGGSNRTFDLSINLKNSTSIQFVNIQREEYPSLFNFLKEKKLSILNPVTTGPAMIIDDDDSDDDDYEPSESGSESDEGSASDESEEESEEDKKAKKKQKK
DdSSRP1 containing only the ID1 region (residues 479–527), sequence (Q54G78 479-527): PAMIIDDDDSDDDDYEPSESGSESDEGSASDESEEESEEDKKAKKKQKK

| Kd | Substance |
| --- | --- |
| 310 nM | full-length DdSSRP1 (from UniProt Q54G78 1-527) (natural protein) |
| 190 nM | DdSSRP1 containing only the ID1 region (residues 479–527) (from UniProt Q54G78 479-527) (domain or fragment) |
